From patent publication US20150191542A1 (INNATE PHARMA S A, published 2015)

T1: MICA*004 expressed on C1R transfectant cells (human, UniProt Q29983 24-297, Glycosylated on cells; the letters do not carry this.)
T1 construct: also called C1R-MICA*004; C1R-MICA*04
T1 chain: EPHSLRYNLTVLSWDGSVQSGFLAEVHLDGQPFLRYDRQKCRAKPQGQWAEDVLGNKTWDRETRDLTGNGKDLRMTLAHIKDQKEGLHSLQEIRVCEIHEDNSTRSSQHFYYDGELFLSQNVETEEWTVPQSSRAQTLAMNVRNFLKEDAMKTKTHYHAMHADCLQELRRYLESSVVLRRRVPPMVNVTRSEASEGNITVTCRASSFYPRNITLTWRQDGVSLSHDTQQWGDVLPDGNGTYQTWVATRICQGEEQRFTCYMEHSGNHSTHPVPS

T2: MICA*007 expressed on C1R transfectant cells (human, UniProt Q29983 24-297, Glycosylated on cells; the letters do not carry this.)
T2 construct: also called C1R-MICA*007; C1R-MICA*07
T2 chain: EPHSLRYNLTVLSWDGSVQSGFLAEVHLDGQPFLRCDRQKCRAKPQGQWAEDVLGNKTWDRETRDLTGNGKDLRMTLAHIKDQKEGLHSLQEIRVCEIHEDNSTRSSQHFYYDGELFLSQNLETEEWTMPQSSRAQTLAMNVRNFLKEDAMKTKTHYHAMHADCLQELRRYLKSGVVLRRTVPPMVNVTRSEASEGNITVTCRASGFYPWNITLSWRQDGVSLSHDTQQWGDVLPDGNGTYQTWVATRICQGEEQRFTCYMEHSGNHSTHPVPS

T3: MICA*008 expressed on C1R transfectant cells (human, UniProt Q29983 24-297, Glycosylated on cells; the letters do not carry this.)
T3 construct: also called C1R-MICA*008; C1R-MICA*08
T3 chain: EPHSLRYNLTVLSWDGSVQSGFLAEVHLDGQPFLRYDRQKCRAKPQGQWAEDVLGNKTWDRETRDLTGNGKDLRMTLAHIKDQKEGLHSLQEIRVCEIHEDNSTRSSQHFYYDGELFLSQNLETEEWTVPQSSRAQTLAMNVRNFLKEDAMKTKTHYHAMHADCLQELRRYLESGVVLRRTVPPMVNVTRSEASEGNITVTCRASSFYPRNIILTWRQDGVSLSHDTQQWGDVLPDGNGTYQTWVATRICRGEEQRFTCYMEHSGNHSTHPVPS

T4: MICA*001 extracellular domain recombinant protein (full extracellular domain with a BirA or a Poly-His Tag) (human, UniProt Q29983 24-297)
T4 construct: it may be the same as MICA*001-His; also called MICA extracellular domain recombinant protein; not shown: BirA or poly-His tag
T4 sequence: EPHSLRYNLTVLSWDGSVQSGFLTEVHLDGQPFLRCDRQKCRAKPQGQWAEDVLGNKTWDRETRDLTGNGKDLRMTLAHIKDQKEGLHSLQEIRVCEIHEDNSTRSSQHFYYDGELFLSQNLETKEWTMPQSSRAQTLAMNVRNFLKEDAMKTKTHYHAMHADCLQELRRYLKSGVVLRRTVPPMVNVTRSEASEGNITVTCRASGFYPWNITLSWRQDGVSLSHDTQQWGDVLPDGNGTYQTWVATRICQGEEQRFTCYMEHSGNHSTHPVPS


Experiments:
[1] = target: T1, MICA*004 expressed on C1R transfectant …; experiment: flow cytometry on C1R-MICA*004 cells, 3-parameter logistic fit
Experimental: (§1) The binding of antibodies obtained from the first and second immunization series (including 9C10, 20C6 and 16A8) were tested for binding to MICA-expressing CR1 transfectant cells C1R-MICA*001, C1R-MICA*004, C1R-MICA*007 and C1R-MICA*008 (Pr. A. Steinle, Eberhard-Karls University Tuebingen, Germany) described in Salih et al. (2003) Blood 102(4): […]. Binding was analyzed by flow cytometry.
(§2) Cells were harvested and stained in PBS 1×/BSA 0,2%/EDTA 2 mM buffer during 30 minutes at 4° C. using a dose-range of the anti-MICA mAbs. After two washes in staining buffer, cells were stained for 30 min at 4° C. with goat anti-mouse (H+L)-PE polyclonal antibodies (1/200). After two washes, stainings were acquired on a BD FACS Canto II and analyzed using the FlowJo software.
(§3) Antibodies 9C10, 20C6 and 16A8 bound to each of the C1R-MICA*001, C1R-MICA*004, C1R-MICA*007 and C1R-MICA*008 cells (see FIGS. 3A, 3B and 3C for antibodies 9C10, 20C6 and 16A8 respectively). […] EC50 values are shown in Table C in μg/ml (calculated using a 3-parameter logistic fit).

[2] = target: T2, MICA*007 expressed on C1R transfectant …; experiment: flow cytometry on C1R-MICA*007 cells, 3-parameter logistic fit
Experimental: as §1, §2, §3

[3] = target: T3, MICA*008 expressed on C1R transfectant …; experiment: flow cytometry on C1R-MICA*008 cells, 3-parameter logistic fit
Experimental: as §1, §2, §3

[4] = target: T4, MICA*001 extracellular domain …; experiment: ELISA, 3 µg/ml recombinant protein coated
Experimental: 3 μg/ml of the indicated MICA recombinant proteins were coated overnight in 96-well plates in PBS 1× at 4° C. All subsequent steps were performed at room temperature. After washes with PBS 1×/Tween 0.05%, plates were saturated for an additional 2 hours in PBS 1×/BSA 1%. Two additional washes were performed prior adding the tested anti-MICA mAb in PBS 1×/BSA 1% for 2 hours. Antibodies were washed and a horseradish peroxidase conjugated goat polyclonal anti-mouse IgG (GAM-HRP) in PBS 1×/BSA 1% was added for 1 hour. Final washing steps were performed and TMB substrate was added to reveal the ELISA (5 to 20 min in the dark) and 1M HCl was added to stop the enzymatic reaction. O.D. was measured at 450 nm.
9C10 binds to MICA extracellular domain recombinant-protein but not MICA extracellular domain α3 recombinant protein. Antibody 16A8, however, bound to both MICA extracellular domain recombinant protein […] MICA extracellular domain α3 recombinant protein. Therefore, it can be concluded from this ELISA experiment that the binding site on MICA of 9C10 antibodies includes the α1 and/or α2 domains while antibody 16A8 binds to MICA within the α3 domain. […] BAMO1 is a commercially available anti-MICA specific for α1α2 domain and BAMO3 is a commercially available anti-MICA specific for α3 domain.

EC50 [1] | EC50 [2] | EC50 [3] | binding result [4] | Binder
0.31 µg/mL | 0.74 µg/mL | 0.33 µg/mL | binds | antibody 16A8 (antibody, V domains shown, Murine hybridoma antibody of IgG2a isotype as tested; also called 16A8-Biot) VH: EVQLVESGGGLVKPGGSLKLSCAASGFTFSRYAMSWVRQTPEKRLEWVATIFSGGSYTYYPDSVKGRFTISRDNANNTLYLQMSSLKAEDTAMYFCARPNWERTFDYWGQGTTLTVSS VL: not shown
0.2 µg/mL | 7.93 µg/mL | 0.15 µg/mL | binds | antibody 9C10 (antibody, V domains shown, Biotinylated when captured in the SPR assays (9C10-Biot); the sites are not given., Murine hybridoma antibody of IgG2b isotype as tested; also called 9C10-Biot) VH: QVQLQQPGAELVRPGTSVNLSCKASGYSFTRYWMNWVKQRPGQGLEWIGMIHPSDSETRLNQKFKDKATLTVDKSSSTAYMQLSSPTSEDSAVYYCGYGNFFYVMDYWGQGTSVTVSS VL: DILLTQSPAILSVSPGERVSFSCRASQSIGTSIHWYQQRTNGSPRLLIKFASESISGIPSRFSGSGSGTDFTLNINSVESEDIADYYCQQSNFWPFTFGSGTKLEVK
